For two molecules, Kd results are on record in publication PMC2944808, “Binding between Crossveinless-2 and Chordin Von Willebrand Factor Type C Domains Promotes BMP Signaling by Blocking Chordin Activity” (PLoS ONE, 2010).

Holding throughout (details): both partners purified
One experiment has as its target T1, BMP2, human (human, UniProt P12643 283-396).
T1 construct: Bone morphogenetic protein 2 (BMP2), human; The discussion speaks of 'the BMP dimer'; also called Bone morphogenetic protein 2; source: E. coli, purified as described [40]
As to the kind of experiment: SPR; BIAcore 2000; BMP2 immobilised, CV2 proteins perfused; apparent KD from koff/kon; 6 to 9 analyte concentrations, at least three independent experiments.

In experiment [1] the target is T2, Chordin, full-length, mouse (mouse, UniProt Q9Z0E2 27-948).
T2 construct: Chordin, mouse, full-length; source: SF9 cells, purified as described [12]
T2 sequence (looked up): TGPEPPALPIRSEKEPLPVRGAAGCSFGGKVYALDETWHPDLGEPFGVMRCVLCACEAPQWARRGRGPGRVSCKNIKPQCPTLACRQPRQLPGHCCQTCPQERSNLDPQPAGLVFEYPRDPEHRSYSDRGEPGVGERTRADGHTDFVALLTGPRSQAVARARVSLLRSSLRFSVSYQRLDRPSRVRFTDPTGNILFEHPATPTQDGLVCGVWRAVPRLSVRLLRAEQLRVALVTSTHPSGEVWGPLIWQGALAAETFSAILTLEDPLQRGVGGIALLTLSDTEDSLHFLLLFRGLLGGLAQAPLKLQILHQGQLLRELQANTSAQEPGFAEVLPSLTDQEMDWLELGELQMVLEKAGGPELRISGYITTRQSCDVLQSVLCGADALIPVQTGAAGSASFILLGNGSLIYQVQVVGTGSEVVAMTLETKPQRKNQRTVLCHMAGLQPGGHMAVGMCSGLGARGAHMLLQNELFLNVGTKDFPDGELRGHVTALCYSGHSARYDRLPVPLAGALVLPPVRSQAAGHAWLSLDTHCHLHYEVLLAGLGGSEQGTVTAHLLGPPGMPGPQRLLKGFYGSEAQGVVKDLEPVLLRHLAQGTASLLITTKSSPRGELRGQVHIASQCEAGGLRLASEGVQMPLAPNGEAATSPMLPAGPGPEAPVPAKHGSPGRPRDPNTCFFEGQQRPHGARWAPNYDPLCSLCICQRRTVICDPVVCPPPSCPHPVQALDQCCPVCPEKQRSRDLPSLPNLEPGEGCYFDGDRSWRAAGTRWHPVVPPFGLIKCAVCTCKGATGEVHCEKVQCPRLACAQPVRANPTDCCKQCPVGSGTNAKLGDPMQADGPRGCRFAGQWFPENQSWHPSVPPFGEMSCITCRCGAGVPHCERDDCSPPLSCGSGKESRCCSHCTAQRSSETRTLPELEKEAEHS
As to the kind of experiment: SPR; BIAcore 2000; Chordin immobilised, CV2 proteins perfused; apparent KD from koff/kon; 6 to 9 analyte concentrations, at least three independent experiments. (In general: In SPR one partner is held on a chip, and binding of the other changes the refractive index at the surface.)

Experiment [2] has as its target T3, VWC2 domain of Chordin, mouse (mouse).
T3 construct: Chordin, mouse, von Willebrand factor type C domain 2 (VWC2); also called Chordin VWC2; VWC2 of Chordin; source: SF9 cells, purified as described [12]
As to the kind of experiment: SPR; BIAcore 2000; VWC2 domain of Chordin immobilised, CV2 proteins perfused; apparent KD from koff/kon; 6 to 9 analyte concentrations, at least three independent experiments.

T1 sequence (P12643 283-396): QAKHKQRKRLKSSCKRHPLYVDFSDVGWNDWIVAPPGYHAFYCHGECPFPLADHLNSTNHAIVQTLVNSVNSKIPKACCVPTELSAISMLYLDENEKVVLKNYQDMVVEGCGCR

B1: CV2-VWC1-4 (domain or fragment)
chain: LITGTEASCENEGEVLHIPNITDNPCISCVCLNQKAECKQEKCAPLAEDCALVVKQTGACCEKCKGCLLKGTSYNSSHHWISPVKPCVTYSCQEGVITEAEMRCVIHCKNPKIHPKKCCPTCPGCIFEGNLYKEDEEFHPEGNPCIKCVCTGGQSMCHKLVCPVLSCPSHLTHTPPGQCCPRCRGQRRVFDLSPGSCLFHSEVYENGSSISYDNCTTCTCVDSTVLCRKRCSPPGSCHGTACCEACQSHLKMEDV
With B1, the Kd was 21 nM with BMP2, human; 180 nM in experiment [1]; 145 nM in experiment [2].

B2: CV2 ΔClip (domain or fragment)
chain: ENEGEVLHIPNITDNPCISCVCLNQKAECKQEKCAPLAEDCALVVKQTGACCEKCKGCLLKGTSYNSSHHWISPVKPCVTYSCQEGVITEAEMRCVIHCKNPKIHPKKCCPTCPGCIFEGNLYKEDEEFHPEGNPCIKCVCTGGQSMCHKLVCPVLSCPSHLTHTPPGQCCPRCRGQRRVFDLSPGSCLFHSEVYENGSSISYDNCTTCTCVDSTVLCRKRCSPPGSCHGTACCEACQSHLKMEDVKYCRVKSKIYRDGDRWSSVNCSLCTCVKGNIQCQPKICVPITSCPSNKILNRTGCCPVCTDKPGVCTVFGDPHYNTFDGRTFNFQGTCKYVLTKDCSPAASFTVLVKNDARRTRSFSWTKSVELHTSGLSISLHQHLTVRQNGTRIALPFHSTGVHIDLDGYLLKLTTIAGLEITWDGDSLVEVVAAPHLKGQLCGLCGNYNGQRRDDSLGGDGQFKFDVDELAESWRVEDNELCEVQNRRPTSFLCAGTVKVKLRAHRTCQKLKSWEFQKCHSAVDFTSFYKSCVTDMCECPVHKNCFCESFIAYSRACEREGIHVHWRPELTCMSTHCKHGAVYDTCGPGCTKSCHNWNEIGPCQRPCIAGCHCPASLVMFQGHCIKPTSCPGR
For the molecule B2, the Kd with BMP2, human came out at 50000 nM; in experiment [1], 178 nM; in experiment [2] it was 180 nM.
